Experimental data as given in patent publication US20240043859A1, “HERBICIDE-RESISTANT PROTEIN, AND GENE AND USE THEREOF” (QINGDAO KINGAGROOT CHEMICAL COMPOUND CO., LTD., priority 2020, published 2024).
“Also recorded” adds a separate entry of the source.

B1: QYD49: AAD-like enzyme, SEQ ID NO. 97 (protein)
chain: MARTFDIEPLAGTTFGAVVRGMKVAILDDAGWRDLYAAWLKYALLVFPGQHLKRDEQIAFAKRFGALEFEMAALSNVKSDGTLRQEKDNDDMMKILKGNMGWHADSTYMPVQAKGAVFSAEIVPGAGGQTGFADMRAAYDALDAGRKAKVERLAAHHSLHYSQSKLGHQTKKQDGEYSGYGLHDGPVPLRPLVKTHPETGRKSLLIGRHAHNIPGMDKAESERLLQELVDFACQPPRVYHHDWTAGDAVVWDNRCLLHQATPWDMTQPRVMWHSRIAGDPRSEAALGVTAVSAAASG
modifications: Synthetic polypeptide, QYD49, D49
B2: QYD48: AAD-like enzyme, SEQ ID NO. 95 (protein)
chain: MTDRLEIKPLDATFGAVVTGIRLAEIDEPTWRELHATWLKYALLVFPGQHLQRDQQIAFAKRFGPLEFEMAAISNVKSDGTLRIEEDNDDMMKILKGNMGWHADSTYMPVQAKGAVFSAEEVPTIGGQTGWADMRAAYDALDEARKAQIESLQAYHSLHYSQSQLGHQTGKSDGEYSGYGLHDGPVPLRPLVKTHPETGRKSLLIGRHAHNIPGMDRDEARRLLEGLIDFACQPPRIYHHDWAAGDAVVWDNRCLLHQATPWDMTQRRIMWHSRIAGDPASESALAA
modifications: Synthetic polypeptide, QYD48, D48
B3: QYD46: AAD-like enzyme, SEQ ID NO. 91 (protein)
chain: MARAFYITPLDATFGAVVTGVKLVDLDDAGWRELHAAWLQYALLVFPGQYLKRDQQIAFARRFGPLEFEMVAISNVRSDGTLRVEKDNDDVMKILKGNMGWHADSTYMPVQAKGAVFSAEVVPTIGGHTGFADMRAAYDALDDVRKARVENLQARHSLHYSQSKLGHETKKSDGEYHGYGLHDGPVPLRPLVKTHPETGRKSLLIGRHAHAIPGMDGPESEAFLQELIDFACQPPRIYHHDWAAGDAVLWDNRCLLHQATPWDMTQKRIMWHSRIAGDPASESALAH
modifications: Synthetic polypeptide, QYD46, D46
B4: QYD47: AAD-like enzyme, SEQ ID NO. 93 (protein)
chain: MATRLEIKPLDATFGAVVTGIKLAEIDEATWRELHATWLKYALLVFPGQFLKRDQQIAFAKHFGPLEFEMAAISNVKSDGTLRIEKDNDDVMKILKGNMGWHADSTYMPVQAKGAVFSAEEVPTVGGQTGWADMRAAYDALDDARRARVETLQAYHSLHYSQSKLGHETRKSDGEYSGYGLHNGPIPLRPLVKTHPETGRKSLLIGRHAHDIPGMDREESQSFLEELVDFACRPPRIYHHDWAAGDAVVWDNRCLLHQATPWDMTQRRIMWHSRIAGDPASESALAA
modifications: Synthetic polypeptide, QYD47, D47
B5: QYD45: AAD-like enzyme, SEQ ID NO. 89 (protein)
chain: MARPFDIAPLDATFGAIVTGVKLAGLDEACWRALHAAWLQYALLVFPNQHLARVEQIAFAKRFGPLEFEMAAISNVRADGSLRVETDNDDMMKILKGNMGWHADSTYMPVQAKGAVFSAEVVPTIGGQTGFADMRAAYDALDEDLKARVETLQAYHSLHYSQSRLGHETKKADGEYSGYGLHDGPVPLRPLVKTHPETGRKSLLIGRHAHAIPGMEPGESERFLQELIDFACQPPRVYRHNWAPGDAVLWDNRCLLHQATPWDMTQKRIMWHSRIAGDAAGETALAH
modifications: Synthetic polypeptide, QYD45, D45
B6: QYD43: AAD-like enzyme, SEQ ID NO. 85 (protein)
chain: MRRLHIAPTGATLGATVTGVSLAALDEPTWQAIYRAWLEHALLIFPGQHLSNQQQIGFARRFGAIERIGGGEIVAISNVKADGRVRAHTPAEWDDMMKVIVGNMAWHADSTYMPVMAKGAVFSGELVPTERGETSFADMRAAYDALDQATRALVHQRSAHHSLVYSQSKLGHVPGAQSAYLGYGMDQTTAPLRPLVKVHPETGRQSLLIGRHAHAIPGMDPAESEVFLEGLVEWACQPPRIHTHHWTAGDVVLWDNRCLLHRAMPWDLAQPRVMWHSRLAGDPVAEAALPPVAPAAATH
modifications: Synthetic polypeptide, QYD43, D43

Tests used:
[1] = format: cell-based, Escherichia coli
[2] = test system: Arabidopsis thaliana; test: Herbicide resistance of transgenic Arabidopsis thaliana seedlings on plate medium (root growth); format: in vivo; conditions: for Resistance of transgenic Arabidopsis thaliana: 2,4-D / Resistance of transgenic Arabidopsis thaliana: MCPA: Arabidopsis overexpressing the gene
Outline: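 After 3 days of cold treatment at 4 °C, seeds were cultured at 22 °C under a 16 h/8 h light cycle on MS herbicide medium (0.3 μM 2,4-D in the screen). Root growth was scored against wild-type seedlings at one week. The material was T2 AAD-overexpressing lines (AtUbi10 promoter, MAS terminator, hygromycin marker), two events each, tested with 2,4-D, 2,4-DB sodium and MCPA.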

[3] = test system: Arabidopsis thaliana; test: as above; format: in vivo; conditions: plate medium with 2,4-D (0.3 μmol)
[4] = Chromogenic reaction of degrading herbicides in bacteria: 2,4-D; format: cell-based, Escherichia coli; conditions: recombinant E. coli expressing the gene, 2,4-D added to the medium, red = phenols
Outline: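 Colour from 2,4-D degradation was detected at A510 after 5 min at room temperature, with 4-aminoantipyrine and ferricyanide added to culture supernatant in pH 10 borate. Cultures were AAD12-expressing or empty-vector (pET15b) BL21(DE3), grown overnight at 28 °C with 0.5 mM 2,4-D, 0.1 mM IPTG and 2 mM α-ketoglutarate.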

[5] = Chromogenic reaction of degrading herbicides in bacteria: triclopyr; format: cell-based, Escherichia coli; conditions: recombinant E. coli expressing the gene
Procedure: To transform the plasmids to be tested, an AAD12-expressing plasmid and a blank control plasmid pET15b were respectively transformed into the protein expression E. coli BL21(DE3) strains. A monoclone was selected and inoculated in a 10 ml centrifuge tube with 3 ml LB medium, and cultivated at 37° C., 200 rpm for 6-8 hours. […] The temperature was switched to 28° C. and the cultivation continued overnight. In the next morning, 200 μL of each bacteria solution was taken and centrifuged to precipitate thallus, 180 μL of the supernatant was taken and added in a 96-well plate, and 20 μL of borate buffer of pH 10 was added. Then the mixture was added with 2 μL of 8% potassium ferricyanide and mixed well, followed by adding 2 μL of 2% 4-aminoantipyrine, and placed at room temperature for 5 min to observe the color and detect the A510 value. […]

Molecule | Chromogenic reaction of degrading herbicides in bacteria: MCPA [1] | Resistance of transgenic Arabidopsis thaliana: 2,4-D [2] | Resistance of transgenic Arabidopsis thaliana: MCPA [2] | 2,4-D resistance of T1 generation transgenic seedlings (seminal root growth) [3] | Chromogenic reaction of degrading herbicides in bacteria: 2,4-D [4] | Chromogenic reaction of degrading herbicides in bacteria: 2,4-D ([4]; listed as D49) | Chromogenic reaction of degrading herbicides in bacteria: 2,4-D ([4]; listed as D48) | Chromogenic reaction of degrading herbicides in bacteria: Triclopyr [5] | Chromogenic reaction of degrading herbicides in bacteria: Triclopyr ([5]; listed as D48) | Chromogenic reaction of degrading herbicides in bacteria: 2,4-D ([4]; listed as D46) | Chromogenic reaction of degrading herbicides in bacteria: Triclopyr ([5]; listed as D46) | Chromogenic reaction of degrading herbicides in bacteria: 2,4-D ([4]; listed as D47) | Chromogenic reaction of degrading herbicides in bacteria: Triclopyr ([5]; listed as D47) | MCPA resistance of T1 generation transgenic seedlings ([2]; plate medium with MCPA (0.1 μmol)) | 2,4-DB sodium resistance of T2 generation transgenic plants ([2]; plate medium, 2,4-DB sodium (0.7 μmol), two events per transformant) | MCPA resistance of T2 generation transgenic plants ([2]; plate medium, MCPA (0.1 μmol), two events per transformant) | Chromogenic reaction of degrading herbicides in bacteria: 2,4-D ([4]; listed as D45) | Chromogenic reaction of degrading herbicides in bacteria: 2,4-D ([4]; listed as D43) | Chromogenic reaction of degrading herbicides in bacteria: Triclopyr ([5]; listed as D43)
B1 | Yes | Yes | Yes | showing tolerance to 2,4-D | Yes | could degrade 2,4-D; also recorded: capable of degrading 2,4-D |  |  |  |  |  |  |  |  |  |  |  |  | 
B2 | Yes | Yes | Yes | showing tolerance to 2,4-D | Yes |  | could degrade 2,4-D; also recorded: capable of degrading 2,4-D | Yes | slight degradation |  |  |  |  |  |  |  |  |  | 
B3 | Yes | Yes | Yes | showing tolerance to 2,4-D | Yes |  |  | Yes |  | could degrade 2,4-D; also recorded: capable of degrading 2,4-D | slight degradation |  |  |  |  |  |  |  | 
B4 | Yes | Yes | Yes | showing tolerance to 2,4-D | Yes |  |  | Yes |  |  |  | could degrade 2,4-D; also recorded: capable of degrading 2,4-D | slight degradation |  |  |  |  |  | 
B5 | Yes | Yes | Yes | showing tolerance to 2,4-D; also recorded: lower resistance | Yes |  |  |  |  |  |  |  |  | obvious resistance | obvious resistance | obvious resistance | could degrade 2,4-D; also recorded: capable of degrading 2,4-D |  | 
B6 | Yes | Yes | Yes | showing tolerance to 2,4-D | Yes |  |  | Yes |  |  |  |  |  |  |  |  |  | could degrade 2,4-D; also recorded: capable of degrading 2,4-D | slight degradation
